Four molecules from paper PMC7948967, “The heme-binding protein PhuS transcriptionally regulates the Pseudomonas aeruginosa tandem sRNA prrF1,F2 locus” can be followed below.

Data set [1] deals with T1, PhuS (Pseudomonas aeruginosa PAO1, UniProt O68880 1-354). Kind of data set: fluorescence anisotropy; apo-PhuS; much smaller anisotropy change; FA: 20 mM Tris-HCl pH 8.0, 100 mM NaCl, 0.05 mg/ml BSA, 10 nM DNA (Fur: 10 mM bis-Tris borate pH 7.5, 40 mM KCl, 0.1 mM MnSO4, 0.1 mg/ml BSA, 10% glycerol), temperature not stated; EMSA: 100 mM Tris pH 8.0, 500 mM NaCl, 10% glycerol, 10 ng/ml salmon sperm DNA, 37 C, 30 pM DNA. As to conditions: protein: recombinant; tags: none; label: 5'-6FAM; blunt. For orientation: Polarisation of emitted light reports the rotation of a fluorescent probe.

For data set [2], the target named is T2, Fur (Pseudomonas aeruginosa, UniProt Q03456 1-134).
T2 sequence: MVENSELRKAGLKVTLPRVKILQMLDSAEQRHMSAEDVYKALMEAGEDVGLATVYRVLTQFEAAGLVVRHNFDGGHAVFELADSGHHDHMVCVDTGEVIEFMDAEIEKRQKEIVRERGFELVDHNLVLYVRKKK
Kind of data set: fluorescence anisotropy; 0.1 mM MnSO4; bis-Tris borate pH 7.5, 40 mM KCl; FA: 20 mM Tris-HCl pH 8.0, 100 mM NaCl, 0.05 mg/ml BSA, 10 nM DNA (Fur: 10 mM bis-Tris borate pH 7.5, 40 mM KCl, 0.1 mM MnSO4, 0.1 mg/ml BSA, 10% glycerol), temperature not stated; EMSA: 100 mM Tris pH 8.0, 500 mM NaCl, 10% glycerol, 10 ng/ml salmon sperm DNA, 37 C, 30 pM DNA. The note with it: protein: recombinant; tags: GST removed with thrombin (pGEX-2T); chain copies: 2; label: 5'-6FAM; blunt.

The target of data set [3] is T1, PhuS. Kind of data set: fluorescence anisotropy; apo-PhuS; FA: 20 mM Tris-HCl pH 8.0, 100 mM NaCl, 0.05 mg/ml BSA, 10 nM DNA (Fur: 10 mM bis-Tris borate pH 7.5, 40 mM KCl, 0.1 mM MnSO4, 0.1 mg/ml BSA, 10% glycerol), temperature not stated; EMSA: 100 mM Tris pH 8.0, 500 mM NaCl, 10% glycerol, 10 ng/ml salmon sperm DNA, 37 C, 30 pM DNA. As to conditions: protein: recombinant; tags: none; label: 5'-6FAM; blunt.

Data set [4] concerns the target PhuS H212R (Pseudomonas aeruginosa PAO1, UniProt O68880 1-354, H212R). Kind of data set: fluorescence anisotropy; apo-PhuS H212R; FA: 20 mM Tris-HCl pH 8.0, 100 mM NaCl, 0.05 mg/ml BSA, 10 nM DNA (Fur: 10 mM bis-Tris borate pH 7.5, 40 mM KCl, 0.1 mM MnSO4, 0.1 mg/ml BSA, 10% glycerol), temperature not stated; EMSA: 100 mM Tris pH 8.0, 500 mM NaCl, 10% glycerol, 10 ng/ml salmon sperm DNA, 37 C, 30 pM DNA. As to conditions: protein: recombinant; tags: none; label: 5'-6FAM; blunt.

B1: prrF1-30 (dsDNA)
DNA 1: GACATGGAAATGAGAATCATTATTATGTCA
DNA 2: TGACATAATAATGATTCTCATTTCCATGTC
By Kd is commonly meant the constant that tells how readily two partners part at equilibrium. For B1, the equilibrium dissociation constant (Kd) in data set [1] is above 2000 nM; in data set [2] it was 50 ± 10 nM.

B2: prrF1-50 (No Fur) (dsDNA)
DNA 1: ATTCCAGAGGGCTCGCGACTAGCTAGCAGAAAAGTTTGGCGAAAGCGTTT
DNA 2: AAACGCTTTCGCCAAACTTTTCTGCTAGCTAGTCGCGAGCCCTCTGGAAT
On to B2, for which, in data set [3], the binding result is “no binding”.

B3: prrF1-50 (FAM) (dsDNA)
DNA 1: AGCAGAAAAGTTTGGCGAAAGCGTTTGACATGGAAATGAGAATCATTATT
DNA 2: AATAATGATTCTCATTTCCATGTCAAACGCTTTCGCCAAACTTTTCTGCT
In the case of B3, the figures for the equilibrium dissociation constant (Kd) in data set [3] and in data set [4] were 64 ± 10 nM and 90 ± 30 nM, respectively.

B4: prrF2-50 (Fur) (dsDNA)
DNA 1: ATGAGAACCGGCTTGACCTGATAATGAGAATAGTTATTATTACACCAACT
DNA 2: AGTTGGTGTAATAATAACTATTCTCATTATCAGGTCAAGCCGGTTCTCAT
Take B4: the binding result in data set [3] was “no binding”.
